Measurements published in publication doi:10.1101/638080.

Biological target: Chloride Intracellular Channel 1 (CLIC1), human, with N-terminal twin strep tag (human) (UniProt O00299)
Assay: mass photometry

For “Chloride Intracellular Channel 1 (CLIC1), human, with N-terminal twin strep tag (from UniProt O00299 1-241) (natural protein)”, the stoichiometry N was 6.
